According to the RNAGym collection of RNA variant scans (doi:10.1073/pnas.2313332121):
This sample holds only a part of the variants without activity.

B1: TPR 5TU (parent)
chain: GGAUCUUCUCGAUCUAACAAAAAAGACAAAUCUGCCACAAAGCUUGAGAGCAUCUUCGGAUGCAGAGGCGGCAGCCUUCGGUGGCGCGAUAGCGCCAACGUUCUCAACUAUGACACGCAAAACGCGUGCUCCGUUGAAUGGAGUUUAUCAUG

Variants of: B1
Test: polymerase ribozyme fitness, log enrichment relative to wild type (log ratio); higher = more active; in vitro selection for triplet polymerase activity
Method in brief: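 For each subunit of a heterodimeric triplet polymerase ribozyme, a mutant library was built by PCR and transcribed, then taken through a single in vitro selection round in triplicate. Selection involved annealing to a biotinylated primer, the partner subunit and triplets, incubation frozen at −7 °C, gel excision of extended constructs, capture on streptavidin beads and RT-PCR. Genotypes were retained after Illumina sequencing of inputs and outputs only with ≥10 input reads and ≥1 read in each output. Fitness is defined as the logarithm of a genotype's enrichment relative to wild-type enrichment, using inverse-variance-weighted averages across replicates, with the logarithm taken to base 2.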

Going from GGAUCUUCUCGAUCUAACAAACAAGACAAAUCUGCCACAAAGCUUGAGAGCAUCUUCGGAUGCAGAGGCGGCAGCCUUCGGUGGGGCGAUAGCGCCAACGUUCUCAACUAUGACACGCAAAACGCGUGCUCCGUUGAAUGGAGUUUAUCAUG [A22C C85G] to GGAUCUUCUCGAUCUAACAAAAAAGACAAAUCUGCCACAAAGCUUGAGAGCAUCUUCGGAGGCAGAGGCGGCAGCCUUCGGUGGCGCGAUAGCGCCAACGUUCUCAACUAUGACACGCAAAACGAGUGCUCCGUUGAAUGGAGUUUAUCAUG [U61G C125A], the “polymerase ribozyme fitness (log ratio)” value rises from -2.43 to -1.26.

First: GGAUCUUCUCGAUCUAACAAAAAAGACAAAUCUGCCACAAAGCUUGAGGGCAUCUUCGGAUGCAGAGGCGGCAGCCUUCGGUGGCGCGAUAGCGCCAACGUUCCCAACUAUGACACGCAAAACGCGUGCUCCGUUGAAUGGAGUUUAUGAUG [A49G U104C C149G]
Second: GGAUCGUCUCGAUCUAACAAAAAAGACAAAUCUGCCACAUAGCUUGAGAGCAUCUUCGGAUGCAGAGGCGGCAGCCUUCGGUGGCGCGAUAGCGCCAACGUUCUCAACUAUGACGCGCAAAACGCGUGCUCCGUUGAAUGGAGUUUAUCAUG [U6G A40U A115G]
The “polymerase ribozyme fitness (log ratio)” value of the first is lower: ≤ -4.2 for the first, -1.66 for the second.

Compared with GGAUCUUCUCGAUCUAACAAAAACGACAAAUCUGCCACAAAGCUUGAGAGUAUGUUCGGAUGCAGAGGCGGCAUCCUUCGGUGGGGCGAUAGCGCCUACGUUCUCAACUAUGACACGCAAAACGCGUGCUCCGUUGAAUGGAGUUUAUCAUG [A24C C51U C54G G74U C85G A97U], GGAUCUUCUCGAUCUAACAAAAAAGACAAAUCAGCCACAAAGCUUGAGAGCAUCUUCGGAUGCAGAGGCGGCAGCCUUCCGUGGCGCGAUAGCGCCAAUGUUCUCAACUAUGACACGCAAAACGCGUGCUUCGUUGAAUGGAGUUUAUCAUG [U33A G80C C99U C131U] is lower in “polymerase ribozyme fitness (log ratio)” value: -4.18 for the first, ≤ -4.2 for the second.

First: GGAUCUUCUCGAUCUAACAAAAAAGACAAAACUGCCACAUAGCUUGAGCGCAUCUUCGGAAGCAGAGGCGGCAGCGUUCGGUGGUGCGAUAGCGCCAACGUUCUCAACUAUGACACGCAAAACGCGUGCUCCGUUGAAUGGAGUUUAUCAUG [U31A A40U A49C U61A C76G C85U]
Second: GGAUCUUCUCGAUCUAACAAAAAAGACAAAUCUGCCACAAAGCUUGAGAGCAUCUUCGGAUGCAGAGGCGGCAGCCUUCGGUGGCGCGAUAGUGCCAACGUUCUCAACUAUGACACGCAAAACGCGUGCUCCGUUUAAUGGAGUUUAUCAUG [C93U G136U]
The “polymerase ribozyme fitness (log ratio)” value of the first is lower: ≤ -4.2 for the first, -3.31 for the second.

GGAUCUUCUCGAUGUAACAAAAAAGACAAAUCUGCUACAAAGCUUGAGAGCAUCUUCGGAUGCAGAGGCGGCAGCCUUCGGUGGUGCGAUAGCGCCAACGUUCUCAACUAUGACACGCAAAACGCGUGCUCCGUUUAGUGGAGUUUAUCAUG [C14G C36U C85U G136U A138G] and GGAUCUUCUCGAUCUAACAAAAAAGACAAAUCUGACACAAAGCUUGAGAGCAUCUUCGGAUGCAGAGGCGGCAGCCUUCGGUGGCGCGAUAGCGCCAUCGUUCUCAUCUAUGACACGCAAAACGCGUGCUCCGUUGUAUGGAGUUUAUCAUG [C35A A98U A107U A137U] cannot be ordered by “polymerase ribozyme fitness (log ratio)” value: ≤ -4.2 for the first, ≤ -4.2 for the second.

Compared with GGAUCUUCUCGAUCUAACAAAAAUGACAAAUCUGCCACAAAGCUUGAGAGCCUCUACGGAUGCAGAGGCGGCGGCCUUCGGUGGCGCGAUAGUGCCAACGUUCUCAACUAUGACACGCAAAACGCGUGCUCCGUUGAAUGGAGUUUAUCAUG [A24U A52C U56A A73G C93U], GGAUCUUCUCGAUCUAACAAAAAAGACAAAUCUGCCACAAAGCUUGAGAGCAUCUUCGGAUGCAGAGGCGGUAGCCUUCGGUGGGGCGAUAGCGCCAAGGUUCUCAACUAUGAGACGCAAAACGCGUGCUCCGUUGAAUGGAGUUUAUCAUG [C72U C85G C99G C114G] is lower in “polymerase ribozyme fitness (log ratio)” value: -3.52 for the first, ≤ -4.2 for the second.

Going from GGAUCUUCUCGAUCUAACAAAACAGACAAAUCUGCCCCAAAGCUUGAGAGCAACUUCGGAUGCCGAGGCGGCAGCCUUCGGUGGCGCGACAGCGCGAACGGUCUCAACUAUGACACGCAAAACGCGUGCUCCGUUGAAUGGAGUUUAUCAUG [A23C A37C U53A A64C U90C C96G U101G] to GGAUCUUCUCGAUCUAACAAAAAAGACAAAUCUGCCACAAAGCUUGAGUGCAUCUUCGUAUGCAGAGGCGGCAGCCUUCGGUGGCGCGAUAGCGCCAACGUUCUCAACUAUGACACGCAAAACGCGUGCUCCGUUGAAUGGAGUUUAUCAUG [A49U G59U], the “polymerase ribozyme fitness (log ratio)” value rises from ≤ -4.2 to -0.317.

GGAUCUUCUCGAUCUAACAAAAUUGACAAAUCUGCCACAAAGCUUGAGAGCAUCUUCGGAUGCAGAGGCGGCGGCCUUCGGUGGCGCAAUCGCGCCAACGUUCUCAACUAUGAUACGCAAAACGCGUGCUCCGUUGAAUGGAGUUUAUCAUG [A23U A24U A73G G88A A91C C114U] and GGAUCUUCUCGAUCUAACAAAAAAGACAAUUCUGCCACAAAGCUUGAGAGCAUCUGCUGAUGCAGAGGCGGCGGCCUUCGGUGGUGCGAUAGCGCCAACGUUCUUAACUAUGACACGCAAAACGCGUGCUCCGUUGAAUGCAGUUUAUCAUG [A30U U56G G58U A73G C85U C105U G141C] cannot be ordered by “polymerase ribozyme fitness (log ratio)” value: ≤ -4.2 for the first, ≤ -4.2 for the second.

First: GGAUCUUCUCGCUCUAACAAAAAAGACAAAUCUGCCACAAAGCUUGAGAGCAUCUUCGGAUGCAGAGGCGGCAGCCUUCGGUGGCGUGAUAGCGCCAACGUUCUCAACUAUGACACGCAAAACGCGUGCUCCGUUGAAUGGAGUUUAUCAUG [A12C C87U]
Second: GGAUCUUCUCGGUCUAACAAAAAAGACAAAUCGGCAACAAAGCUUGAGAGCAUCUUCGGAUGCAGAGGCGGCAGCCUUCGGUGGCUCGAUAGCGCCAACGUUCUCAACUCUGACACGUAAAAUGCGUGCUCCGUUGAAUGGAGUUUAUCAUG [A12G U33G C36A G86U A110C C118U C123U]
The “polymerase ribozyme fitness (log ratio)” value of the first is higher: -0.61 for the first, ≤ -4.2 for the second.

In the case of GGAUCUUCUCGAUCUAACAAAAAAGACAAAUUUGCCACAAAGCUUGAGAGCUUCUUCGGAUGCAGAGGCGGCAGCCUUCGGUGUCGCGAUAGCGCCAACGUUCUCAACUAUGACACGCAAAACGCGUGCUCCGUUGAAUGGAGUUUAUCAUG [C32U A52U G84U], the “polymerase ribozyme fitness (log ratio)” value is reported as ≤ -4.2.
